Non-standard residues stand in square brackets, D forms with d. Residues, ends and D or L forms follow the SMILES beside them. No end group written: not given here. *: point of attachment. Proxyl = 3-carboxy-2,2,5,5-tetramethylpyrrolidinyloxy spin label; TOAC = CC1(C)CC(N)(C(=O)O)CC(C)(C)N1[O]; X1 = CC1(C)CC(C(=O)*)C(C)(C)N1[O]; Aib = CC(C)(N)C(=O)O

Data on six compounds can be found in paper PMC2919855 (Biochemistry, 2010).

For assay [1], the target named is photoactivated rhodopsin (R*) in ROS membranes (Bos taurus, UniProt P02699). In words: Direct binding by EPR: spectral integration of bound and free peptide components.
Assay [2] concerns the target T1, rhodopsin in rod outer segments (ROS) (Bos taurus, UniProt P02699). Nature of the assay: Meta II. The format is biochemical. To be noted: result in words.
Assay [3] concerns the target rhodopsin in rod outer segment (ROS) membranes (UniProt P02699). Nature of the assay: EPR spectroscopy.
Assay [4] has the same target. Nature of the assay: time-resolved EPR after a laser flash.
The target is the same in assay [5]. Nature of the assay: Meta II stabilization assay.
In assay [6] the target is T1, rhodopsin in rod outer segments (ROS). To be noted: cited from earlier work.

T1 sequence (P02699 whole entry): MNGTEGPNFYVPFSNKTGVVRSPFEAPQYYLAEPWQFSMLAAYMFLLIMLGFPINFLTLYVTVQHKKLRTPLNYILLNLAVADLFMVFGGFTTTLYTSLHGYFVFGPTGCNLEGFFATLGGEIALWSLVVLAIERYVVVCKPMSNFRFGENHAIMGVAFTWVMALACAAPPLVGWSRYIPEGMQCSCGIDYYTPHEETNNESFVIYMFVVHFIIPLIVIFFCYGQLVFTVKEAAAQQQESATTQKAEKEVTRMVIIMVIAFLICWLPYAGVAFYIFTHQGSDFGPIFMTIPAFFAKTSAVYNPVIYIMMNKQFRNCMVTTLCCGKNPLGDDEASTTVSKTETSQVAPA
Sequence of rhodopsin in rod outer segment (ROS) membranes (P02699 whole entry): as above
Sequence of photoactivated rhodopsin (R*) in ROS membranes (P02699 whole entry): as above

Take `CC(C)C[C@H](NC(=O)[C@H](CC(=O)O)NC(=O)[C@H](CCC(=O)O)NC(=O)[C@H](CC(C)C)NC(=O)[C@@H](NC(=O)C1CC(C)(C)N([O])C1(C)C)C(C)C)C(=O)N[C@@H](CCCCN)C(=O)N[C@@H](CO)C(=O)N[C@@H](CS)C(=O)NC1(C(=O)N[C@@H](CC(C)C)C(=O)N[C@@H](Cc2ccccc2)C(=O)O)CC(C)(C)N([O])C(C)(C)C1` (stereo partly drawn) [Proxyl/TOAC^348-Gtα(340–350)] (X1-VLEDLKSC[TOAC]LF-OH): the Kd in assay [1] stood at 65 µM. For the same compound, the “ability to stabilize the MII state of rhodopsin” value (“ability” below) in assay [2] is on record as “retained the ability to stabilize the MII state”.

Turning to “IKE-TOAC-LKDCGLF [TOAC^343-Gtα(340–350)]”, the “ability” value in assay [2] was “retained the ability to stabilize the MII state”.

In assay [3], “Proxyl-Gtα(340–350) high-affinity peptide” displayed a Kd of 4 µM. This lies in the single-digit micromolar range.

Regarding “Proxyl-Gtα(340–350): Gtα(340–350) with Proxyl spin label at the amino terminus (Proxyl-IKENLKDCGLF)”, the “ability” value in assay [2] was “retained the ability to stabilize the MII state”.

For the compound “TOAC^343-Gtα(340–350) high-affinity peptide”, the lifetime of binding after the flash (single exponential) in assay [4] was found to be 5.8 ms. The Kd in assay [3] was 12.5 µM; in assay [5] it was 10 µM.

For [Aib]K[Aib][Aib]LKDCGLG, in assay [6], the “activity in stabilization of the MII state of rhodopsin” value is reported as “full activity”.

The term Kd denotes a measure of binding affinity in units of concentration.
